From US20210156867A1 (YEDA RESEARCH AND DEVELOPMENT, published 2021)

B1: GST-P1 (enzyme, human, UniProt P09211 1-210, looked up)
GST-P1 subunit: MPPYTVVYFPVRGRCAALRMLLADQGQSWKEEVVTVETWQEGSLKASCLYGQLPKFQDGDLTLYQSNTILRHLGRTLGLYGKDQQEAALVDMVNDGVEDLRCKYISLIYTNYEAGKDDYVKALPGQLKPFETLLSQNQGGKTFIVGDQISFADYNLLDLLLIHEVLAPGCLDAFPLLSAYVGRLSARPKLKAFLASPEYVNLPINGNGKQ
notes: recombinant; also called human recombinant GST-P1-1

Experiments:
[1] = molecular target: T1, recombinant human B-cell lymphoma protein 2 alpha His-Tag (Bcl-2) (human, UniProt P10415 1-211, limits assumed); assay: fluorescence displacement assay: emission of the His-Bcl-2-compound 5 sensor complex (200 nM) after adding 800 nM protein
T1 construct: In the assay it was in complex with the Ni-NTA sensor compound 5; also called His-Bcl-2; not shown: His-tag

[2] = molecular target: T2, mouse recombinant His-calmodulin, calcium-bound (mouse, UniProt P0DP26 1-149); assay: SPR, His-CaM immobilised on CM5 chip, analyte pre-incubated with 0.3 mM CaCl2
T2 construct: also called His-CaM(Ca^2+); His-CaM(Ca^+2)

[3] = molecular target: T1, recombinant human B-cell lymphoma …; assay: fluorescence displacement assay: emission of the His-Bcl-2-compound 5 sensor complex (200 nM) after adding 800 nM peptide
Description: Fluorescence measurements were performed in triplicate. The emission intensities before the addition of each protein were normalized to 100*14 (FIG. 27b).

T1 sequence (P10415 1-211 limits assumed): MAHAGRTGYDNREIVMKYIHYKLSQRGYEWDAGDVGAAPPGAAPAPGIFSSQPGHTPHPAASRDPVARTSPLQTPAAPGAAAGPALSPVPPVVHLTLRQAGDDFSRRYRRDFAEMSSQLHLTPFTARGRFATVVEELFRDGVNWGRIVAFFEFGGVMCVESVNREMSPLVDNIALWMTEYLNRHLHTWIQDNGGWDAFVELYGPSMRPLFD

Binder	binding result [1]	Kd [2] [nM]	binding result [3]
B1	no binding (tested: 800 nM)		
KRRWKKNFIAVSAANRFKKISSSGAL (peptide, UniProt P07313 578-603, looked up, check before use)		8.8	no binding (tested: 800 nM)
